According to the supplement of paper PMC9170038:

Columns and labels:
MS2 coat protein [1] = test: apparent KD of MS2 coat protein, switch ON state; designed switch direction (-1 OFF switch, 1 ON switch): -1; higher = weaker reporter binding; details: FMN input: 0 or 200 uM; Eterna round: R93 (includes R88 designs)
Method in brief: (§1)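 Illumina sequencing clusters were used for on-chip transcription of designed RNA switches. Titration with SNAP-549-labelled MS2 coat protein followed, in twofold steps from 0.7 or 1.5 nM to 3 µM in 100 mM Tris-HCl pH 7.5, 80 mM KCl, 4 mM MgCl2, without or with constant ligand. Apparent KD is each design's median of fits to normalised cluster binding curves.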

MS2 coat protein [2] = test: apparent KD of MS2 coat protein, switch OFF state (with FMN for OFF switches, without FMN for ON switches); designed switch direction (-1 OFF switch, 1 ON switch): -1; higher = weaker reporter binding; details: FMN input: 0 or 200 uM; Eterna round: R93 (includes R88 designs)
Method in brief: as §1

Row | Sequence | apparent KD of MS2 coat protein (MS2 coat protein [1]) [nM] | apparent KD of MS2 coat protein (MS2 coat protein [2]) [nM]
1 | AAAGGACGAGGAUAUACAUGAGGAUCACCCAUGUAAAAAACAUAACAAAAGAACUUAUGUAGAAGGCGUCCAAA [69%, Moding Meechl, 2] | 54.4 | 403
2 | AAAGGACGAGGAUAUACAUGAGGAUCACCCAUGUAAGAAGCAUAAUAAAAUAACUUAUGUAGAAGGCGUCCAAA [Mat - Exclusion 3 - Eli mod - D94] | 26 | 69
3 | AAAGGAUCAGGAUAUGUGUGGAAAAAGUGUGUCCCAAAAAAACAUGAGGAUCACCCAUGUAGAAGGGAUCCAAA [Mod 5 of Normal (20/19) by Nando, Round 1] | 44.9 | 97.8
4 | AAAGGUACAGGAUAUGCGUGGAAAAAGUGUAUUCACCAACGACAUGAGGAUCACCCAUGUAGAAGGGUACCAAA [Mod of wbt1 from round 1] | 25.9 | 31.8
5 | AAAUGACAUGAGGAUCACCCAUGUCAGGAUAUGACUUGAAAAAAAAAAAAAAAACAUGUCAGAAGGGACAUGGA [Design 51: Sub-opt G] | 22.8 | 22.2
6 | AACAGGACAGGAUAUACAUGAGGAUCACCCAUGUAGGAAACAAGCAGAGUACCAAACAGUAGAAGGGUCAUGGA [Ruby 29] | 31.3 | 50.3
7 | AACAGGACAGGAUAUACAUGAGGAUCACCCAUGUAGGAAUUAAGCAGAGUACCAAACAGUAGAAGGGUCAUGGA [Ruby 27] | 33.3 | 44.7
8 | AACAGGGCAGGAUAUACAUGAGGAUCACCCAUGUAGGAAACAAGCAGAGUACCAAAAAGUAGAAGGGUCAUGGA [Ruby 31] | 30.2 | 33.1
9 | AACAGGUGAGGAUAUCUGGAUAGGAAAAAGAAAACCUAUCCAGAGAAGGCACAUGAGGAUCACCCAUGUAAAAA [JL cataway mod 8] | 78.5 | 96.2
10 | AACAGUACAGGAUAUACAUGAGGAUCACCCAUGUAAAAAAAGGGUGGCGUACCACGAAGUAGAAGGGUACUGGA [Moding Maslow revisited (73) 11] | 187 | 81.3
11 | AACAGUACAGGAUAUACAUGAGGAUCACCCAUGUCACAAUUAAGCAGCGUAACACAAAGUAGAAGGGUAAUGGA [Ruby 17] | 46.4 | 31.1
12 | AACAGUACAGGAUAUACAUGAGGAUCACCCAUGUCACAGAAAUAAAACAAAAAUAAAAGUAGAAGGGUACUGGA [Ruby 41] | 31.2 | 36.7
13 | AACAGUACAGGAUAUACAUGAGGAUCACCCAUGUGAAAAUUAAGUGGAGUACCACAAGGUAGAAGGGUACUGGA [Mat - Exclusion 3 - Eli mod - D61] | 27.7 | 101
14 | AACAGUACAGGAUAUACAUGAGGAUCACCCAUGUGAAUAAAUAGUGGCGUACCACAAAGUAGAAGGGUACUGGA [Mat - Exclusion 3 - JL mod - D25] | 27.4 | 136
15 | AACAGUACAGGAUAUACAUGAGGAUCACCCAUGUGAGAGAAAUAAAACAAAAAUAAAAGUAGAAGGGUACUGAA [Mat - Exclusion 3 - Eli mod - D67] | 31.8 | 36
16 | AACAUGUUAGGAUAUAGAAGAAAAGAAAAGAAAGAAAAGAACUAGAAGGAACAUGAGGAUCACCCAUGUAAGAA [EteRNA is fun!] | 30.9 | 26.1
17 | AACAUGUUAGGAUAUCAAAGAAAAGAAAAGAAAGAAAAGAAUGAGAAGGAACAUGAGGAUCACCCAUGUAAGAA [EteRNA is fun!] | 23 | 22.1
18 | AACUAGUCAGGAUAUACGAACAUGUCAAAAAACAUGAAGGGACAUGAGGAUCACCCAUGUAGAAGGGACUAGCA [74%, Web mod - With 3 less G's] | 60.5 | 209
